What follows are sequences tested against rYbx1 (wild type) (Danio rerio (zebrafish)) (UniProt B5DE31) (assay: EMSA). Conditions: RNA EMSA; binding buffer and temperature not given; extract lysis buffer 20 mM Tris pH 8.0, 100 mM NaCl, 0.1 mM EDTA, 1 mM 6-aminohexanoic acid, 1 mM PMSF, 25% ….
rYbx1 (wild type) (Danio rerio (zebrafish)), sequence (B5DE31 whole entry): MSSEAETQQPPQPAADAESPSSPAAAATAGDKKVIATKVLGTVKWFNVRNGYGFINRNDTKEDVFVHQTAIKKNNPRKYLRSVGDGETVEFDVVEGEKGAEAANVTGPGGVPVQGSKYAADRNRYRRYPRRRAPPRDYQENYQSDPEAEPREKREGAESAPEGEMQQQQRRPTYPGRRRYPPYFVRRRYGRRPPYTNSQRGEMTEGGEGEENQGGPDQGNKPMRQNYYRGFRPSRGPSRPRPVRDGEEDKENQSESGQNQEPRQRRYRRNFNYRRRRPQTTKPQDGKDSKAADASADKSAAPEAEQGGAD

| Sequence | binding |
| --- | --- |
| GGGAGAACAAUUUUUCUUUUUUUAGGUGUGGAUUAAUGCAAAAUUAGGCUUCUUUUUAGAUGCAGAGAAUGUGCAUGUAGAUGCUGUUAAAGUAACUUUUUAUAAU [vg1.2 probe] | no binding |
| GGGAGAAGUGGAUGCAGAUGAACAUGACUUAAUUUUUAAAUGCACAAUUUGUUUAUUACAAUUUUUCUUUUUUUAGGUGUGGAUUAAUGCAAAAUUAGGCUUCUUUU [vg1.1 probe] | no binding |
| GGGAGACCGGCCGCACAACCAUUCACGCAAAAGACAACACACGCGUCGUGGAUGAAGUAAUCCUCUUUGCAAAUAUGUAAAGCUGUAUAUUUCUAAUGUAAAUA [wnt8a.1 probe] | no binding |
| GGGAGAGAUGCAGAGAAUGUGCAUGUAGAUGCUGUUAAAGUAACUUUUUAUAAUUCAUUGUAAUGUAAUAAUAAAAACUUUUACUAUGGGAUUCCUUUUUUUUC [vg1.3 probe] | no binding |
| GGGAGAUAUUUUAUGAGAUUUUAAGAUAUAAUUUUCUGUAUAUUUCUGCAAGCAAAAUGUAAAUUGACGCUCUAUAUAAGACACAUGGGCUUUCUCGUUCCCAC [wnt8a.2 probe] | no binding |
| GGGAGAUGUCAAUUGAAUUCAUUGAAGUUCUAUUUUGAAGUUCAUUAUUUGCACUUUUUCGUUCUCGACAUAAGAUCACAGAUUUUGUUGCUCUCAAAAAAUGU [wnt8a.3 probe] | no binding |
| GGGAGAUUGUAUUUUUUCAUGCACAGAUCACUUGACAGUAUGCAGUGUUUCACGAUGAGGUUUAAAUGUUGUGUUUUAUGGAACUUAUUUAAGGCAAAUAUUUU [wnt8a.4 probe] | no binding |

Reference: publication PMC3771576
